# Data published in the Immune Epitope Database (IEDB).
# What was measured:
# [1] = target: HLA-B*39:01; assay: IEDB peptide-MHC binding, purified MHC/competitive/fluorescence; filed as Kd, often an IC50 or EC50 that approximates it; ≥ and ≤ were set here for values at or beyond the usual limits of such assays; settings: source organism: Zaire ebolavirus
# [2] = target: HLA-B*18:01; assay: as above; settings: source organism: Zaire ebolavirus
# [3] = target: HLA-A*69:01; assay: as above; settings: source organism: Zaire ebolavirus
# [4] = target: HLA-A*02:01; assay: as above; settings: source organism: Zaire ebolavirus
# [5] = target: HLA-B*58:01; assay: as above
# [6] = target: HLA-B*27:03; assay: as above; settings: source organism: Zaire ebolavirus
# [7] = target: HLA-A*26:01; assay: as above; settings: source organism: Zaire ebolavirus
# [8] = target: HLA-B*46:01; assay: as above; settings: source organism: Zaire ebolavirus
# [9] = target: HLA-A*02:19; assay: IEDB peptide-MHC binding, purified MHC/direct/fluorescence; filed as Kd, often an IC50 or EC50 that approximates it; ≥ and ≤ were set here for values at or beyond the usual limits of such assays; settings: source organism: Ebola virus Yambio0403
# [10] = target: HLA-A*02:11; assay: as above; settings: source organism: Ebola virus Yambio0403
# [11] = target: HLA-A*29:02; assay: as above; settings: source organism: Ebola virus Yambio0403
# [12] = target: HLA-B*15:01; assay: as above
# [13] = target: HLA-A*02:16; assay: as above; settings: source organism: Ebola virus Yambio0403
# [14] = target: HLA-A*02:12; assay: as above; settings: source organism: Ebola virus Yambio0403
# [15] = target: HLA-A*02:03; assay: as above; settings: source organism: Ebola virus Yambio0403
# [16] = target: HLA-A*68:02; assay: as above; settings: source organism: Ebola virus Yambio0403
# [17] = target: HLA-A*24:03; assay: as above
# [18] = target: HLA-A*03:01; assay: as above
# [19] = target: HLA-B*35:01; assay: as above; settings: source organism: Escherichia coli O157:H7
# [20] = target: HLA-A*69:01; assay: as above; settings: source organism: Escherichia coli O157:H7
# [21] = target: HLA-A*02:01; assay: as above; settings: source organism: Escherichia coli O157:H7
# [22] = target: HLA-A*01:01; assay: as above; settings: source organism: Escherichia coli O157:H7
# [23] = target: HLA-A*31:01; assay: as above; settings: source organism: Escherichia coli O157:H7
# [24] = target: HLA-B*08:01; assay: as above; settings: source organism: Escherichia coli O157:H7
# [25] = target: HLA-B*58:01; assay: as above; settings: source organism: Escherichia coli O157:H7
# [26] = target: HLA-B*44:02; assay: as above; settings: source organism: Escherichia coli O157:H7
# [27] = target: HLA-B*40:01; assay: as above; settings: source organism: Escherichia coli O157:H7
# [28] = target: HLA-A*26:01; assay: as above; settings: source organism: Escherichia coli O157:H7
# [29] = target: HLA-B*07:02; assay: as above; settings: source organism: Escherichia coli O157:H7
# [30] = target: HLA-A*11:01; assay: as above; settings: source organism: Escherichia coli O157:H7
# [31] = target: HLA-B*27:05; assay: as above; settings: source organism: Escherichia coli O157:H7
# [32] = target: HLA-A*03:01; assay: IEDB peptide-MHC binding, purified MHC/competitive/fluorescence; filed as Kd, often an IC50 or EC50 that approximates it; ≥ and ≤ were set here for values at or beyond the usual limits of such assays; settings: source organism: Yersinia pestis Nepal516
# [33] = source organism: Zaire ebolavirus
# [34] = source organism: Ebola virus Yambio0403
# [35] = source organism: Escherichia coli O157:H7
sequence,measurement,setting,value
ESLLHQASW,Kd,[1],≥ 20 µM
same,Kd,[2],≥ 20 µM
same,Kd,[3],≥ 20 µM
same,Kd,[4],≥ 20 µM
same,Kd,[5]; [33],0.0021 µM
same,Kd,[6],≥ 20 µM
same,Kd,[7],≥ 20 µM
same,Kd,[8],≥ 20 µM
same,Kd,[9],≥ 20 µM
same,Kd,[10],≥ 20 µM
same,Kd,[11],≥ 20 µM
same,Kd,[12]; [33],≥ 20 µM
same,Kd,[13],≥ 20 µM
same,Kd,[14],≥ 20 µM
same,Kd,[15],≥ 20 µM
same,Kd,[16],≥ 20 µM
same,Kd,[17]; [34],≥ 20 µM
same,Kd,[18]; [34],≥ 20 µM
LPEFERRTL,Kd,[19],0.0163 µM
same,Kd,[20],≥ 20 µM
same,Kd,[21],≥ 20 µM
same,Kd,[22],≥ 20 µM
same,Kd,[23],≥ 20 µM
same,Kd,[24],4.22 µM
same,Kd,[25],≥ 20 µM
same,Kd,[12]; [35],≥ 20 µM
same,Kd,[26],≥ 20 µM
same,Kd,[27],≥ 20 µM
same,Kd,[28],≥ 20 µM
same,Kd,[29],0.0371 µM
same,Kd,[30],≥ 20 µM
same,Kd,[31],≥ 20 µM
same,Kd,[17]; [35],≥ 20 µM
same,Kd,[18]; [35],≥ 20 µM
MTTSMTMSY,Kd,[5]; source organism: Yersinia pestis Nepal516,0.0475 µM
same,Kd,[32],0.302 µM
